Here are results for 47 sequences from the NTF2 design screens of Basanta et al. (2020).

The series can be described thus: protease stability score; higher = more stable; yeast display proteolysis, trypsin and chymotrypsin.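 Further: relative to predicted unfolded state with 0 unfolded-like and 1 meaning tenfold more protease.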
“SESEEFAREFLEHMEKFLRTGNWEEMKRNADPNVLLRIGDKHLHGREEYEEWLRKFLEHMRIREVEVKDLKIVGDKIFLIIRIRIHFDGREDQLDTILVMQKVDGRWIVTEIRVR” displayed a protease stability score of 1.21. As for “SESEEFLEKAYRLIEESLRTGDFREMLSNIDPNARFRYGNFDFHGRENLEFMLKELSKRIDHFHNSHIRRVNVINGRMHLHTSMHVEYDGKKEEVETEWVLLKVDGQWLIKEVTVI”, the figure is 2.51.

“SESEEHSKKLFDTWVHSELTGDERSLLHLMDPHVKFIIDGREIHGREKASEFLVKLREHLGAEIHDYRVRDMKIQGEKVIIHSELDVQVDGVRHHERLVLIMHKIDGQWSVESVKRV” displayed a protease stability score of 1.08. In the case of “SESEEIAHNFTELLIKTLNTGDEKLYRELADPNARIEINGVELVGWKKANELLQRIDHERVRRVKLKDIEVQGDKVIVRTHEEREINIGDKRLHIRTDVEIIWVKINGKWILHEISVH” it was 1.23; in that of “SESEELAEHWFELLIRSILTGDEDTLRRLMDPDVKIQVGDKEWHGREEYIRMVLEFSHLYKNVKLHFRIRSVVDIDGRLTVDTEIINSFDGREYRIDTRLHVDKYDGVWVAKHLIYS”, 1.39. “SESEHKAREMIRLIEHFLITGDEESWHRLFDPHTRVVIDGREIHGMEIYNHWLKELRIRDSHIHIRTIEDINGRINIHGELQLHGIINGQTHDFRSHIDLHVLKFNGRWHMETYIIS” yielded a protease stability score of 1.57. In the case of “SESEHLLHTAHELVLRLQETGDWDEIIELADPNVRMEIGDKEIHGREEFERWSREMRFEHVEIHDMRVQGNKADLDGRMRGHFNGRTIDTRVKIIFHKVDGRWLITSYHVK” it was 1.18. In the case of “SESEKASEIATKELEEVEKTGDEKTIEDYMDPNTRLHINGVDLHGMENFLEFWHRLLRKLGFESTSFHLKSSRIQGNKIKMHSIIHVKQGEKDISFDVEYIALKFNGRWIEESMSSK” it was 1.32; in that of “SESERATRHALRLLWDILLTGDEETWEKMADPNVRVEIGNFHDHGMDSMRLLFHLLLERIDHIHDFTVRHSHSQGDKVENHTEIEVRQGDKSLNITTVFVYVKINGRWINKRVIFK”, 0.999; in that of “SESERYIHEAERHLIEKLRTGDWDDMSRLLDPHVRLDVNGQEFHGWHRVSDTMRRFGFKHVDVEDTHINEDELRSHLRSRVDGVHFELHIQMRKVNGRWFFKNLEFK”, 1.15. “SESHDLLEEFVRLILHLWRTGDEEILHNMADPNTQMHIGDKTYHGREEAVDVIHKLLKHLRFKHLHIDHIDIQGDWVRITGHLHVKVDGREIQREVSSVVIKINGRWILRSERID” displayed a protease stability score of 2.27. In the case of “SESHHLAKHVVHLFMHAVSTGDEKLLRELLDPDVRVDINGVELIGMEDFQKWLHEWREHMHDSKVHRVRDYNGVLESDVKVRRVLIVDGVRLEEETHSEVIIVKINGRWHVKHVRYR” it was 1.26; in that of “SESHNFFKWALEVLLLSLRTGNERHLETLADPNMRVYINGREHHGRQMYFEMVFRWIEKFPNIQIHIHIEDTRVQGDKVHVDGEYQERFNGKTFVEKVHIIMLKIDGKWVLERDEII”, 1.6; in that of “SESKEFIKRFTEEILKNTLTGNEDRYEELLDPNVRVEVGDKEHHGREEALEFLHRIWRELRTKHIVLRDMRIIGDKAEVEYEVRVEVNGVELHMTRRMEIVVIDGRLKAVKLEHT”, 1.24.

As for “SESKHDLIRIFEERSEAHETGDEDFIMELIDPHVKIIIGDKTFHGREKYLEWEKLFGVKHVHFHVKDVRFQGDKVHVNGILRIRVGDKHEEFQVHILITKVNGVWIIKEIEIN”, the protease stability score worked out at 1.35.

On to “SESLEFATKLLEILTHLMYTGDEEDLRHLLDPHVRILFNGKYFHGMEFLMEIYKHWRIQEVRVRFRDVRDVDGRIFVRGEEENVGTINGKRDIVWSHITLIAEKVDGRWVVKEIRIE”, for which the protease stability score came to 1.88. As for “SESQEVLEMAIRIWRHTVKTGDEREIAELMDPHVRIEVGDKEFIGRELVSHWFLRFSEHMRIHDIEIKRYHVVGNKAHIHTVVDGEVDGKRDYTEVELIVEKVDGRWLIRSMKIR”, the figure is 2.49; as for “SETDEDFKRLVEEFIRLFLTGDEDQLLELHDPNTRVEVGDFEEHGMEKWSRFLEEERRRVKGLKLVREDEKIEVQGNKLHLILHGAIEFDGVRLFTRIIVHAEKVNGKWVIRRFKMETR”, 1.54.

“SETDELLRQLAEFHRETLETGDFHTLWHLLDPHVRLDYNGQKMHGREHFARFWLELLTELRIHFRVRDIRTQGNKAHNRGEIIIHYDGRLRIIDSEIEIIVVNGKVTEVRHTIN”: the protease stability score is 0.837. In the case of “SETDESSRVASELMREWLETGDEEVISELADPHVRFDWNGRRDIGRHSYLEFMHMLRRHMGIKHIEFKRIEVHVINGVVHVNITGILHFNGVQLTTHIHIHAEKIDGRWILKQSHYDTE” it was 0.751. In the case of “SETEEAATLMLRMLIETIYTGDEETYKRLADPHVKVRIGDKTFHGREQVIERLHRTWKEMRIEDVEVQDMRYQGDFIRNRTHILLHQGEYRHRFDVEIIVFKFNGQWILTSQHFH” it was 1.11; in that of “SETEEAVKKVTHDLWHALLTGDEEIIRDLFDPHTKILINGVELHGMDEHKDFLDRFDHIHVHDRRIETVIVQGDKAISIGHIHVRFEYGDKHVSVHSEQRLIITKIDGKWIIRFVEIG”, 1.22; in that of “SETEEEAERFEKILLHYRKTGNEDDLLNFIDPHVRIHQGDKEIHGRELYLELMRRWKEIAGHDFFFMNIHDVEIQGEKAIIDGRLFVNGVHHKIKVIFKKINGRWIVESEHIH”, 0.889. Consider “SETEEEARKMIELLVEAWLTGDEHTLERMLDPHVKIIIDGRELHGWKVLAERIKHLRYEHFEFELHSVETQGDKIIIRGIVRSDLRVGDKEEHTHLEVIIIITKVNGRWVVHSIEIR”, for which the protease stability score turned out to be 1.68. As for “SETEEITERWLRLALEALRTGDFEFISRLADPHVRSEYNGVEFIGREEMVRFEEERLERLGATPSDLITRDVEFQGNKVIIHQEMEMRVGDKRHTNETTIFSHKFDGRWILHSIKFH”, the figure is 0.984; as for “SETEELASKVTKEFKRVLETGDWRVSLNLLDPDTLLEINGVEFHGREAWEEFNERFKNVKIHFIERDMKIVGNKIKIEGHLEDRWNGQSTHREMHLVFDKVNGRWFNRSVHFG”, 0.57. As for “SETEENAEHVVREWFEMITTGDEDEVLRLMDPHVRVRIGDKIIHGREIFLAHMRHWRIKNKHFEIEHMHFYGDKAVLDGRLVGEETVDGKHRTYDRRVDFNLVKIDGKWHIREFHVD”, the figure is 1.52; as for “SETEESLRRYIEDWLTALSTGNEDTLKRLMDPSTRVTVDGVEYHGRSALEEFIKRVDVIHRSDRHDFKIQGEKVHVDVRMDVHIDGQKHTLHSHWLILKINGRWVIHELIFE”, 1.99. As for “SETEETSRHLMEMFEKSMLTGDEEHYKRMADPNVRMHINGQEYVGWEDFTRILREIRTEEVRFKVKRYDLVGEYLHVDLRIERDTHVNGVKVEFRTEAELIVVKVDGRWIVKEVRIK”, the figure is 1.27; as for “SETEETVRRFFELLMKLEHTGNEEAIEKLFDPNMKWHQGEKERHGRETFSRMVSELRIHDFRLHRIEIYGDKAIIEGSVDGNFNGQRSEVEVTIHLEKIDGRWFIHSIHLS”, 1.15. Regarding “SETEEWQHQILEILERIQKTGDPHEFMHNADPHVRLHVNGRDFHGMELFKEMFEKFGAKVSHLRDVDIQGDKIHVDGELEFNGVTHKSHVDARKVDGRWVLTRYTIK”, the protease stability score is 0.415. As for “SETEHYSQKLLDLIVKAMRTGDEEMFERLLDPNTRELVDGQELHGREEWHHLWHRIDHLRIDHSEISHVNPIGEFIVVHMRVRMTLHINGKIHHYETEVIIIILKIDGRWLMHEVRFH”, the figure is 0.647; as for “SETEKELHEFFRLWIQLFLTGDFDELKHYIDPNVRSVINGRQLIGMEEVWRWREEARIKDIEIKDVRVQGDKIEADGVLEGTINGVDRRTDTHIQLNVVNGVAKHTFIRIR”, 1.45; as for “SETEKFAEIALKLWIRRLRTGDEHEESMLADPNTLYVQGDKNIHGMERISRFFKEILTRHGITFNHFHLEHIEVQGNKVRLDLRVDGEFDGQRMNQEVELISIKVDGRWFLESVIIR”, 1.62. In the case of “SETEKHLQDIADILVHAEITGDEETLNKMLDPDVRMHNEVNGREYHIHGREEVLKHWREWVTRFKGARIDIEDVHIINGVVHVNMKIIFNGRRIESRLDVEVVNGRVRTIRIHER” it was 2.15; in that of “SETEKLLHEILEKLIRNEATGNFENIEQLLDPHYRVEIGEFEMHGMEEIIRWLNWVKREMRIKRRHIRTMTWQGDKALVDTELHIQVNGQHIRLDEYIVVLIINGRVKEVRVEHR”, 0.943.

In turn, “SETERKVREVLRLLDESLTTGDEREFRHLFDPNARLEIGDWEIHGMEIIDRLLHEIRIEVNDSKVRRIRIQGDKVEVHTRVDLKFNVDGVTERHDRDQHLLILKVNGRWLIKNFYIE” yielded a protease stability score of 1.1.

Turning to “SETERYNEELLTKWFHAEHTGNFEMLQRLIDPHARIDINGVEHIGWRQFTKSLEDFGIDHIHHLKIDHFRVFNGRLFIDVTTDGTINGQRHKTKVLIRIVLYNGVIHEMSIEWV”, the protease stability score was found to be 1.33.

The sequence “SETHEILERIMRMILEILYTGDEESMSRLLDPHVKLVVVIGDKELHLHGRENALRWLVHWRIEDYRLRRYTVQGDKAHVDTESTGNYNGQREESRFSLHVKVINGKIHNMKFEFE” gave a protease stability score of 2.56.

As for “SETHKHWEEVARIIIKALETGDFRLFHKLLDPNARLHHDIGDKRVNNVGREEVVRTLKMWIDRFPNVTIELKDMRVIDGVVHHDESLNINGVTVRVHIEIIVFDGKLEEMRIEYR”, the protease stability score came out at 1.23.

With “SETHMESKIASEIFSDIMHTGDFRTLLRYADPHVRYIVGDKTMHGREIMVEEFKELWKTWGVDRVEVRIEDIKVIGEKVEIHGTLIIGEKTLRVVVISTKVNGQWIQDTFNVDEK”, the protease stability score was determined as 0.838.

Regarding “SETKKLWKDLADEVLRAWETGNEEEMEKMLDPHTRLHIHINGRDFHAHGRENIIRMMKFTLDFLGIDHFILRRVTYINGVVHIHQQVIINGQESNVRLEVEIIDGVWHEISVDIH”, the protease stability score came to 1.44. As for “SETREDTRELVESFLNALRTGDEDLLRRLMDPHVKVYFNGREFHGRELATRVESHLRVHDIDVRDMRIIGDKVIIDLQVDGEWDGVRFHRETELHTQKVNGRWFIREIRIH”, the figure is 2.23; as for “SETREIEEEWLRMMFENFITGDWKEIYKYADPNMRFTLSIGEKQERRHGRESMFHAFRRLEEDLGAKHVRLEDSTVYNGRVEINITLEDGDKHINRYIHIQVVNGRMHTIEVSFR”, 0.628; as for “SEVAEVAREIVEIITKREYTGDEKTLDRMMDPNVRVEIGDWEIIGRDIYQKFVIELRVKDMHVRFKDVRVQGDFAFQDTELRMHGIIDGKDRETSHDTHWVFYKVDGRWLVHSIHIK”, 1.3.

“SEVDEQAEHMSRLYLKLIKTGDEEHLMHLADPHTRLDINGKTFIGMEVVHEFNEKERRRVPNMRIHEKSVKVEVFDGRAFTEIHGEWHFDGVTQEIRIEVRIDKVNGRWTIRSVHVEIR” had a protease stability score of 0.704.

Sequence “SEVEDFLHEFVRKLVRVLDTGDWEVLEKMFDPNTRFHIGDKELHGREEFVKFTEELGIRVRWELKDIRFQGDKAETIGTERVDFNGKEITTDVTFEVLLFNGVIKEIRIRRR” registered a protease stability score of 1.36.
